According to publication PMC9684555, “Structure- and computational-aided engineering of an oxidase to produce isoeugenol from a lignin-derived compound” (Nature Communications, 2022):

Molecular target: the molecule itself
Test: crystal structure; sitting-drop vapor diffusion at 20 °C; crystals soaked 1 h with 5 mM 4-n-propylguaiacol; 2.9 Å; eight subunits in the asymmetric unit

B1: S394V-EUGO5X mutant of eugenol oxidase (EUGO) from Rhodococcus jostii RHA1 (enzyme)
chain: MTRTLPPGVSDERFDAALQRFRDVVGDKWVLSTADELEAFRDPYPVGAAEANLPSAVVSPESTEQVQDIVRIANEYGIPLHPVSTGKNNGYGGAAPRLSGSVIVKTGERMNRILEVNEKYGYALLEPGVTYFDLYEYLQSHDSGLMLDCPDLGWGSVVGNTLDRGVGYTPYGDHFMWQTGLEVVLPQGEVMRTGMGALPGSDAWQLFPYGFGPFPDGMFTQSNLGIVTKMGIALMQRPPASQSFLITFDKEEDLEQIVDIMLPLRINMAPLQNVPVLRNIFMDAAAVSKRTEWFDGDGPMPAEAIERMKKDLDLGFWNFYGTLYGPPPLIEMYYGMIKEAFGKIPGARFFTHEERDDRGGHVLQDRHKINNGIPSLDELQLLDWVPNGGHIGFVPVSAPDGREAMKQFEMVRNRANEYNKDYMAQFIIGLREMYHVCLFIYDTADPEAREEILQMTKVLVREAAEAGYGEYRTHNALMDDVMATFNWGDGALLKFHEKIKDALDPNGIIAPGKSGIWPQRFRGQNL
modifications: covalently bound FAD cofactor
notes: eugenol oxidase (EUGO), Rhodococcus jostii RHA1, UniProt Q0SBK1; EUGO5X = S81H, A423M, H434Y, I445D, S518P, with S394V added; Tag-less protein after SUMO protease; crystals were soaked with 4-n-propylguaiacol; also called sixfold mutant S394V-EUGO5X; source: E. coli, from pBAD-His-Sumo-S394V-EUGO5X, purified (HisTrap, SUMO protease, reverse nickel, Superdex 200)
- stoichiometry N: 2
